For test [1], the target named is T1, Smc3^QQ W483R R1008I K1004C (S. cerevisiae, UniProt P47037 1-1230, K112Q | K113Q | W483R | K1004C | R1008I).
T1 construct: Smc3, S. cerevisiae; also called smc3-QQ K1004C with R1008I and W483R; source: S. cerevisiae W303, late G1 arrested cells, whole-cell extract
T1 sequence (looked up): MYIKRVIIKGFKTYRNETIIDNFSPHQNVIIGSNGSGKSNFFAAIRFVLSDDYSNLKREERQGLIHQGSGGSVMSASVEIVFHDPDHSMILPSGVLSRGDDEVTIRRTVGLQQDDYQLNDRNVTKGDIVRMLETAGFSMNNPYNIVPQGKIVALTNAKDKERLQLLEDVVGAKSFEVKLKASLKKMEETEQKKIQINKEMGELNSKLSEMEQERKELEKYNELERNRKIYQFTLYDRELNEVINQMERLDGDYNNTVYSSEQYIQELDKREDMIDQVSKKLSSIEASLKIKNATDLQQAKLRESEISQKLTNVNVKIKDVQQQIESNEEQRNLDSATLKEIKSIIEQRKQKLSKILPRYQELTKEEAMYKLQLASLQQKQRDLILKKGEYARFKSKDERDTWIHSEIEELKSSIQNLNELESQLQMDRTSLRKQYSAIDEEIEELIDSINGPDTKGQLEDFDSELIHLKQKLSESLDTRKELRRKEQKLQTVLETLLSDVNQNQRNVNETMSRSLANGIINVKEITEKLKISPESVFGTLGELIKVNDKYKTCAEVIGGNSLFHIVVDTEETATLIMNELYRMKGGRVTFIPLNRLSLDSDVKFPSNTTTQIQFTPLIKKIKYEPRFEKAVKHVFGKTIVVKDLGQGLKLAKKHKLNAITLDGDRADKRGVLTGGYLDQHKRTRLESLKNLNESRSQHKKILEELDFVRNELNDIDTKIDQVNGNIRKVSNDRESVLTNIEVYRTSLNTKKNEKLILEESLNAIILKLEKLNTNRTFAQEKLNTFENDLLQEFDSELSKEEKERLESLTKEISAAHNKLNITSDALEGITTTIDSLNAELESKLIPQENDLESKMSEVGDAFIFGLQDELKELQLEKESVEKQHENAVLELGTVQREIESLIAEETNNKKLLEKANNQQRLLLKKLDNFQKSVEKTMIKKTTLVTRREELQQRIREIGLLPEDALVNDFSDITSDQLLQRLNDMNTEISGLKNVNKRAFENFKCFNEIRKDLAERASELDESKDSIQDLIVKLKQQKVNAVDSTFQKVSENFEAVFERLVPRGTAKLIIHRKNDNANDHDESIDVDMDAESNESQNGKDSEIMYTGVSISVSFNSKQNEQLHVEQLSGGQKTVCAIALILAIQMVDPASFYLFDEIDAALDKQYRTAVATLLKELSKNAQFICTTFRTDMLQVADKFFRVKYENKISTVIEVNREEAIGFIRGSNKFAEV
Kind of test: cross-linking; in vivo BMOE cross-link of cysteine pairs in yeast cells arrested in late G1 by non-degradable Sic1(9m); Scc1-PK immunoprecipitated, western blot, band intensities quantified. As to conditions: partners not purified.

The target of another test is T2, Smc3^QQ R1008I Q67C (S. cerevisiae, UniProt P47037 1-1230, Q67C | K112Q | K113Q | R1008I).
T2 construct: Smc3, S. cerevisiae; also called smc3-QQ Q67C with R1008I; source: S. cerevisiae W303, late G1 arrested cells, whole-cell extract
T2 sequence (looked up): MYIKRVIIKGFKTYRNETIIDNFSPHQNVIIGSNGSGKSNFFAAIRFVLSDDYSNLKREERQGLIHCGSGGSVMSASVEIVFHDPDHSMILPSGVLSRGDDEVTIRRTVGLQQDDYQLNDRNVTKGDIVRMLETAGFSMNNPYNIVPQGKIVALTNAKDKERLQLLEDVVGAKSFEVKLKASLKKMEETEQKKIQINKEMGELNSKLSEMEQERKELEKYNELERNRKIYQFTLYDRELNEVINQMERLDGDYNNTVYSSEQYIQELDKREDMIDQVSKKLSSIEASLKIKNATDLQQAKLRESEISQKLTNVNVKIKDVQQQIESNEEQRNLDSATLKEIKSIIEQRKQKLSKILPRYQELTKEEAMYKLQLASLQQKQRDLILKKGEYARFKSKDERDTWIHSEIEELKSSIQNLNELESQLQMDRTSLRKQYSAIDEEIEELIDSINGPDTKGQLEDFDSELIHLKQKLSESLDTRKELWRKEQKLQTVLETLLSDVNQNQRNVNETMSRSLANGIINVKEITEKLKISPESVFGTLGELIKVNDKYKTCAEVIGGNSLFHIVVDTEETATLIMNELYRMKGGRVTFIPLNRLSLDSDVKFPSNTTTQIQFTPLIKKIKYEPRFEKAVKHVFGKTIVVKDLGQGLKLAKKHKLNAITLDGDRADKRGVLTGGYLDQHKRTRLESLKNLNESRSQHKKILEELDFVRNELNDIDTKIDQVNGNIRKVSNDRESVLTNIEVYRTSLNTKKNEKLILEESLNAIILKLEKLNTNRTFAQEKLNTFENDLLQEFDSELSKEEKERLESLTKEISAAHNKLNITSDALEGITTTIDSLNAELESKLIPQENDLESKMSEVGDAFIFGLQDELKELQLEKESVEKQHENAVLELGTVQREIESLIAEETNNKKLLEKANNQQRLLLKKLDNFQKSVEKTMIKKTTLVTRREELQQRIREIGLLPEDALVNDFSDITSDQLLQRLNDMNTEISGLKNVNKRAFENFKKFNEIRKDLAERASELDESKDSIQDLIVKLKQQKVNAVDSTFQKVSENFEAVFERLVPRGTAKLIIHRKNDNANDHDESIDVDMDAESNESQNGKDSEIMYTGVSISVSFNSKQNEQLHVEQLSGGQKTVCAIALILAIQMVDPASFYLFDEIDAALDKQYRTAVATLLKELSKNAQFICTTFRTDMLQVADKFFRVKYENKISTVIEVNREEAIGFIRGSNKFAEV
Described as above. The following applies: partners not purified.

B1: Scc2 D369C (natural protein, S. cerevisiae, UniProt Q04002 1-1493, looked up)
chain: MSYPGKDKNIPGRIIEALEDLPLSYLVPKDGLAALVNAPMRVSLPFDKTIFTSADDGRDVNINVLGTANSTTSSIKNEAEKERLVFKRPSNFTSSANSVDYVPTNFLEGLSPLAQSVLSTHKGLNDSINIEKKSEIVSRPEAKHKLESVTSNAGNLSFNDNSSNKKTKTSTGVTMTQANLAEQYLNDLKNILDIVGFDQNSAEIGNIEYWLQLPNKKFVLTTNCLTKLQMTIKNITDNPQLSNSIEITWLLRLLDVMVCNIKFSKSSLKMGLDDSMLRYIALLSTIVLFNIFLLGKNDSNLHRESYIMEPVNFLSDLIESLKILTIEYGSLKIEFDTFQEALELLPKYIRNGPFLDDNVTAKLVYIFSCLLMNNDIEATTNIQFQSFWDNVKRISSDILVSLFGSFDQQRGFIIEELLSHIEKLPTKRIQKKLRKVGNQNIYITDFTFTLMSMLENINCYSFCNQMKDIAPENIDLLKNEYKKQEEFLFNIVEHINDTILERFFKNPSALRYVIDNFVQDLLLLISSPQWPVTEKILSSLLKRLLSVYSPSMQVSANIETICLQLIGNIGSTIFDIKCSTRDHEDNNLIKMINYPETLPHFFKSFEECIAYNETIKCRRSATRFLWNLRLGTILILEEYTKDAKEQIITVDNELKKILEQIKDGGLGPELENREADFSTIKLDYFSILHAFELLNLYDPYLKLILSLLAKDKIKLRSTAIKCLSMLASKDKVILSNPMVKETIHRRLNDSSASVKDAILDLVSINSSYFEFYQQINNNYNDDSIMVRKHVLRINEKMYDETNDIVTKVYVIARILMKIEDEEDNIIDMARLILLNRWILKVHEVLDQPEKLKEISSSVLLVMSRVAIMNEKCSQLFDLFLNFYLLNKEAHSKEAYDKITHVLTILTDFLVQKIVELNSDDTNEKNSIVDKQNFLNLLAKFADSTVSFLTKDHITALYPYMVSDEKSDFHYYILQVFRCTFEKLANFKQKFLYDLETTLLSRLPKMNVREIDEAMPLIWSVATHRHDTARVAKACSSCLSHLHPYINKANNEEAAIVVDGKLQRLIYLSTGFARFCFPKPSNDKIAFLQEGETLYEHITKCLLVLSKDKITHVIRRVAVKNLTKLCGNHPKLFNSRHVLHLLDKEFQSDQLDIKLVILESLYDLFLLEERKSVRNTGVNSTLSSNSILKKKLLKTNRVEFANDGVCSALATRFLDNILQLCLLRDLKNSLVAIRLLKLILKFGYTNPSHSIPTVIALFASTSQYIRHVAYELLEDLFEKYETLVFSSLSRGVTKAIHYSIHTDEKYYYKHDHFLSLLEKLCGTGKKNGPKFFKVLKRIMQSYLDDITDLTSTNSSVQKSIFVLCTNISNITFVSQYDLVSLLKTIDLTTDRLKEVIMDEIGDNVSSLSVSEEKLSGIILIQLSLQDLGTYLLHLYGLRDDVLLLDIVEESELKNKQLPAKKPDISKFSAQLENIEQYSSNGKLLTYFRKHVKDT
notes: Scc2, S. cerevisiae; source: S. cerevisiae W303, in vivo, whole-cell extract
On to B1, for which, in test [1], the “crosslink relative to wild type” value was roughly 70%.

B2: Scc2 T1175C (natural protein, S. cerevisiae, UniProt Q04002 1-1493, looked up)
chain: MSYPGKDKNIPGRIIEALEDLPLSYLVPKDGLAALVNAPMRVSLPFDKTIFTSADDGRDVNINVLGTANSTTSSIKNEAEKERLVFKRPSNFTSSANSVDYVPTNFLEGLSPLAQSVLSTHKGLNDSINIEKKSEIVSRPEAKHKLESVTSNAGNLSFNDNSSNKKTKTSTGVTMTQANLAEQYLNDLKNILDIVGFDQNSAEIGNIEYWLQLPNKKFVLTTNCLTKLQMTIKNITDNPQLSNSIEITWLLRLLDVMVCNIKFSKSSLKMGLDDSMLRYIALLSTIVLFNIFLLGKNDSNLHRESYIMEPVNFLSDLIESLKILTIEYGSLKIEFDTFQEALELLPKYIRNGPFLDDNVTAKLVYIFSDLLMNNDIEATTNIQFQSFWDNVKRISSDILVSLFGSFDQQRGFIIEELLSHIEKLPTKRIQKKLRKVGNQNIYITDFTFTLMSMLENINCYSFCNQMKDIAPENIDLLKNEYKKQEEFLFNIVEHINDTILERFFKNPSALRYVIDNFVQDLLLLISSPQWPVTEKILSSLLKRLLSVYSPSMQVSANIETICLQLIGNIGSTIFDIKCSTRDHEDNNLIKMINYPETLPHFFKSFEECIAYNETIKCRRSATRFLWNLRLGTILILEEYTKDAKEQIITVDNELKKILEQIKDGGLGPELENREADFSTIKLDYFSILHAFELLNLYDPYLKLILSLLAKDKIKLRSTAIKCLSMLASKDKVILSNPMVKETIHRRLNDSSASVKDAILDLVSINSSYFEFYQQINNNYNDDSIMVRKHVLRINEKMYDETNDIVTKVYVIARILMKIEDEEDNIIDMARLILLNRWILKVHEVLDQPEKLKEISSSVLLVMSRVAIMNEKCSQLFDLFLNFYLLNKEAHSKEAYDKITHVLTILTDFLVQKIVELNSDDTNEKNSIVDKQNFLNLLAKFADSTVSFLTKDHITALYPYMVSDEKSDFHYYILQVFRCTFEKLANFKQKFLYDLETTLLSRLPKMNVREIDEAMPLIWSVATHRHDTARVAKACSSCLSHLHPYINKANNEEAAIVVDGKLQRLIYLSTGFARFCFPKPSNDKIAFLQEGETLYEHITKCLLVLSKDKITHVIRRVAVKNLTKLCGNHPKLFNSRHVLHLLDKEFQSDQLDIKLVILESLYDLFLLEERKSVRNCGVNSTLSSNSILKKKLLKTNRVEFANDGVCSALATRFLDNILQLCLLRDLKNSLVAIRLLKLILKFGYTNPSHSIPTVIALFASTSQYIRHVAYELLEDLFEKYETLVFSSLSRGVTKAIHYSIHTDEKYYYKHDHFLSLLEKLCGTGKKNGPKFFKVLKRIMQSYLDDITDLTSTNSSVQKSIFVLCTNISNITFVSQYDLVSLLKTIDLTTDRLKEVIMDEIGDNVSSLSVSEEKLSGIILIQLSLQDLGTYLLHLYGLRDDVLLLDIVEESELKNKQLPAKKPDISKFSAQLENIEQYSSNGKLLTYFRKHVKDT
notes: as for B1
As to B2, the “crosslink relative to wild-type Smc3” value in the test with Smc3^QQ R1008I Q67C was roughly 40%.

The record behind these values is PMC10516938, “Conformational dynamics of cohesin/Scc2 loading complex are regulated by Smc3 acetylation and ATP binding” (Nature Communications, 2023).
